Experimental data as given in publication PMC10552758, “Identification and characterization of a novel β-lactamase gene, blaAMZ–1, from Achromobacter mucicolens” (Frontiers in Microbiology, 2023).

Key:
AMZ-1 = target: T1, AMZ-1 (Achromobacter mucicolens, UniProt Z9OND0BR39); assay: nitrocefin hydrolysis, UV-VIS spectrophotometry; assay type: biochemical
T1 construct: ORF without signal peptide (cleavage 26/27) in pColdI, E. coli BL21(DE3); His-tag removed with enterokinase

[1] = system: CC(=O)OCC1=C(C(=O)O)N2C(=O)[C@@H](NC(=O)Cc3cccs3)[C@H]2SC1; assay: UV-VIS hydrolysis, initial rates, Michaelis-Menten fit; assay type: biochemical, Achromobacter mucicolens; settings: 10 mM phosphate pH 7.0, 37°C
Description: (§1) UV-VIS hydrolysis, initial rates, Michaelis-Menten fit on AMZ-1

[2] = system: CC1(C)S[C@@H]2[C@H](NC(=O)Cc3ccccc3)C(=O)N2[C@H]1C(=O)O; assay: as above; assay type: biochemical, Achromobacter mucicolens; settings: 10 mM phosphate pH 7.0, 37°C
Description: as §1

[3] = system: CC1(C)S[C@@H]2[C@H](NC(=O)[C@H](N)c3ccc(O)cc3)C(=O)N2[C@H]1C(=O)O; assay: as above; assay type: biochemical, Achromobacter mucicolens; settings: 10 mM phosphate pH 7.0, 37°C
Description: as §1

[4] = system: CO[C@@]1(NC(=O)Cc2cccs2)C(=O)N2C(C(=O)O)=C(COC(N)=O)CS[C@@H]21; assay: as above; assay type: biochemical, Achromobacter mucicolens; settings: 10 mM phosphate pH 7.0, 37°C
Description: as §1

Compound | IC50 (AMZ-1) [µM] | Km [1] [µM] | kcat [1] [s⁻¹] | kcat/Km [1] [M⁻¹ s⁻¹] | Km [2] [µM] | kcat [2] [s⁻¹] | kcat/Km [2] [M⁻¹ s⁻¹] | Km [3] [µM] | kcat [3] [s⁻¹] | kcat/Km [3] [M⁻¹ s⁻¹] | Km [4] [µM] | kcat [4] [s⁻¹] | kcat/Km [4] [M⁻¹ s⁻¹]
NC(=O)[C@@H]1CC[C@@H]2CN1C(=O)N2OS(=O)(=O)O [avibactam] | 0.00082 | – | – | – | – | – | – | – | – | – | – | – | –
C[C@]1(Cn2ccnn2)[C@H](C(=O)O)N2C(=O)C[C@H]2S1(=O)=O [tazobactam] | 1090 | – | – | – | – | – | – | – | – | – | – | – | –
AMZ-1 (Achromobacter mucicolens) | – | 564.23 ± 56.35 | 5.88 ± 0.39 | 10400 ± 40 | 108.84 ± 8.12 | 3.93 ± 0.13 | 36300 ± 150 | 14.65 ± 1.274 | 0.0947 ± 0.005 | 6780 ± 1650 | 18.16 ± 3.88 | 0.0805 ± 0.0137 | 4540 ± 660
